In patent US20120122958, “TRANSCRIPTIONAL REPRESSION LEADING TO PARKINSON'S DISEASE” (published 2012):

B1: IRS2-WT (dsDNA)
DNA 1: ACATACAGGCTATTTTGTTGATTAAAC
DNA 2: GTTTAATCAACAAAATAGCCTGTATGT
B2: IRS3-WT (dsDNA)
DNA 1: GCCACTTGCTTGTTTTGGAAGGAAAAT
DNA 2: ATTTTCCTTCCAAAACAAGCAAGTGGC
B3: IRS1-WT (dsDNA)
DNA 1: AGTGTGTTGGTATTTTTCCCTCAGTTC
DNA 2: GAACTGAGGGAAAAATACCAACACACT

Target: PARIS (ZNF746) (Homo sapiens, UniProt Q6NUN9 SEQ:1-644)
Experiment: EMSA; competed by unlabeled WT oligo
Conditions: tags: GST; label: 32P

Sequence of PARIS (ZNF746) (Q6NUN9 whole entry): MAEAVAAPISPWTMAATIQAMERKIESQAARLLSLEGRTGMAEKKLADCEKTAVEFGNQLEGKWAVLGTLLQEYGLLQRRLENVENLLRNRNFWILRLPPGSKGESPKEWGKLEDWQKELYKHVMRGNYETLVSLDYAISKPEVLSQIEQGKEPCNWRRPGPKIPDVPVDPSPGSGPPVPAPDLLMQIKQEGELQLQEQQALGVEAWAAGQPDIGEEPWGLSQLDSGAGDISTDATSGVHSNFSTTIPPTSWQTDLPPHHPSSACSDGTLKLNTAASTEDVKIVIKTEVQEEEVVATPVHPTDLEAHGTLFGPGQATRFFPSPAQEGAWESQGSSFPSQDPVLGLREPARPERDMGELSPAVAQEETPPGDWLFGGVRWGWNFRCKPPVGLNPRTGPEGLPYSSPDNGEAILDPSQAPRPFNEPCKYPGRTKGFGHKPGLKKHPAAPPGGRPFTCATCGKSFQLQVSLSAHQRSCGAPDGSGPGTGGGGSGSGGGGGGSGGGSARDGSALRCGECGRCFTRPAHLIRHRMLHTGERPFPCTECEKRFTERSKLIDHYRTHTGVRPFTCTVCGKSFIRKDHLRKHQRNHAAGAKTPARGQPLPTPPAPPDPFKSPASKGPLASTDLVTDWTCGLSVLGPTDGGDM

Row | Binder | binding result
1 | B1 | binds
2 | B2 | binds
3 | B3 | binds
